# Assay results as given in the Human Domainome abundance scans (Beltran et al. 2025).
# ± gives the uncertainty stated by the source.
# B1: V(D)J recombination-activating protein 2, residues 415 to 491; numbered along this chain, P55895 (parent)
# chain: YWITCCPTCDVDINTWVPFYSTELNKPAMIYCSHGDGHWVHAQCMDLAERTLIHLSAGSNKYYCNEHVEIARALHTP
# Variants of: B1
# Assay: abundance fitness (aPCA) (normalised: wild type 0, dead -1); higher = more abundant; growth selection in yeast, the domain comes from the species named
# Details: Homo sapiens
row,Variant,abundance fitness
1,YWITCCPTCDVDINTWVPFYSTELNKPAMIYCSHGDGHWVHAQCMDLAERTLIHWSAGSNKYYCNEHVEIARALHTP,-0.086 ± 0.053
2,YWITCCPTCDVDINTWVPFYSTELNKPAMIYCSHGDGHWVHAQCMDLAERTLIHVSAGSNKYYCNEHVEIARALHTP,-0.082 ± 0.071
3,YWITCCPTCDVDINTWVPFYSTELNKPAMIYCSHGDGHWVHAQCMDLAERTLIHYSAGSNKYYCNEHVEIARALHTP,-0.027 ± 0.083
4,YWITCCPTCDVDINTWVPFYSTELNKPAMIYCSHGDGHWVHAQCMDLAERTLIHLSAISNKYYCNEHVEIARALHTP,-0.003 ± 0.39
5,YWITCCPTCDVDINTWVPFYSTELNKPAMIYCSHGDGHWVHAQCMDLAERTLIHLSAASNKYYCNEHVEIARALHTP,-0.049 ± 0.074
6,YWITCCPTCDVDINTWVPFYSTELNKPAMIYCSHGDGHWVHAQCMDLAERTLIHLSASSNKYYCNEHVEIARALHTP,-0.038 ± 0.071
7,YWITCCPTCDVDINTWVPFYSTELNKPAMIYCSHGDGHWVHAQCMDLAERTLIHLSAVSNKYYCNEHVEIARALHTP,-0.161 ± 0.084
8,YWITCCPTCDVDINTWVPFYSTELNKPAMIYCSHGDGHWVHAQCMDLAERTLIHLSAESNKYYCNEHVEIARALHTP,0.041 ± 0.089
9,YWITCCPTCDVDINTWVPFYSTELNKPAMIYCSHGDGHWVHAQCMDLAERTLIHLSAPSNKYYCNEHVEIARALHTP,-0.013 ± 0.11
10,YWITCCPTCDVDINTWVPFYSTELNKPAMIYCSHGDGHWVHAQCMDLAERTLIHLSAKSNKYYCNEHVEIARALHTP,-0.063 ± 0.13
11,YWITCCPTCDVDINTWVPFYSTELNKPAMIYCSHGDGHWVHAQCMDLAERTLIHLSATSNKYYCNEHVEIARALHTP,-0.199 ± 0.085
12,YWITCCPTCDVDINTWVPFYSTELNKPAMIYCSHGDGHWVHAQCMDLAERTLIHLSAHSNKYYCNEHVEIARALHTP,0.013 ± 0.16
13,YWITCCPTCDVDINTWVPFYSTELNKPAMIYCSHGDGHWVHAQCMDLAERTLIHLSALSNKYYCNEHVEIARALHTP,0.025 ± 0.078
14,YWITCCPTCDVDINTWVPFYSTELNKPAMIYCSHGDGHWVHAQCMDLAERTLIHLSAFSNKYYCNEHVEIARALHTP,-0.221 ± 0.14
15,YWITCCPTCDVDINTWVPFYSTELNKPAMIYCSHGDGHWVHAQCMDLAERTLIHLSAQSNKYYCNEHVEIARALHTP,0.025 ± 0.092
16,YWITCCPTCDVDINTWVPFYSTELNKPAMIYCSHGDGHWVHAQCMDLAERTLIHLSARSNKYYCNEHVEIARALHTP,-0.165 ± 0.076
17,YWITCCPTCDVDINTWVPFYSTELNKPAMIYCSHGDGHWVHAQCMDLAERTLIHLSAYSNKYYCNEHVEIARALHTP,-0.126 ± 0.11
18,YWITCCPTCDVDINTWVPFYSTELNKPAMIYCSHGDGHWVHAQCMDLAERTLIHLSACSNKYYCNEHVEIARALHTP,-0.061 ± 0.13

row,Variant,abundance fitness
1,YWITCCPTCDVDINTWVPFYSTELNKPAMIYCSHGDGHWVHAQCMDLAERTLIHLSADSNKYYCNEHVEIARALHTP,0.016 ± 0.096
2,YWITCCPTCDVDINTWVPFYSTELNKPAMIYCSHGDGHWVHAQCMDLAERTLIHLSANSNKYYCNEHVEIARALHTP,-0.426 ± 0.19
3,YWITCCPTCDVDINTWVPFYSTELNKPAMIYCSHGDGHWVHAQCMDLAERTLIHLSAMSNKYYCNEHVEIARALHTP,-0.11 ± 0.2
4,YWITCCPTCDVDINTWVPFYSTELNKPAMIYCSHGDGHWVHAQCMDLAERTLIHLSAWSNKYYCNEHVEIARALHTP,-0.06 ± 0.092
5,YWITCCPTCDVDINTWVPFYSTELNKPAMIYCSHGDGHWVHAQCMDLAERTLIHLSGGSNKYYCNEHVEIARALHTP,-0.068 ± 0.076
6,YWITCCPTCDVDINTWVPFYSTELNKPAMIYCSHGDGHWVHAQCMDLAERTLIHLSEGSNKYYCNEHVEIARALHTP,-0.03 ± 0.075
7,YWITCCPTCDVDINTWVPFYSTELNKPAMIYCSHGDGHWVHAQCMDLAERTLIHLSSGSNKYYCNEHVEIARALHTP,0.048 ± 0.055
8,YWITCCPTCDVDINTWVPFYSTELNKPAMIYCSHGDGHWVHAQCMDLAERTLIHLSYGSNKYYCNEHVEIARALHTP,-0.108 ± 0.19
9,YWITCCPTCDVDINTWVPFYSTELNKPAMIYCSHGDGHWVHAQCMDLAERTLIHLSMGSNKYYCNEHVEIARALHTP,-0.156 ± 0.12
10,YWITCCPTCDVDINTWVPFYSTELNKPAMIYCSHGDGHWVHAQCMDLAERTLIHLSVGSNKYYCNEHVEIARALHTP,-0.14 ± 0.077
11,YWITCCPTCDVDINTWVPFYSTELNKPAMIYCSHGDGHWVHAQCMDLAERTLIHLSHGSNKYYCNEHVEIARALHTP,0.091 ± 0.17
12,YWITCCPTCDVDINTWVPFYSTELNKPAMIYCSHGDGHWVHAQCMDLAERTLIHLSTGSNKYYCNEHVEIARALHTP,-0.121 ± 0.12
13,YWITCCPTCDVDINTWVPFYSTELNKPAMIYCSHGDGHWVHAQCMDLAERTLIHLSPGSNKYYCNEHVEIARALHTP,-0.029 ± 0.095
14,YWITCCPTCDVDINTWVPFYSTELNKPAMIYCSHGDGHWVHAQCMDLAERTLIHLSKGSNKYYCNEHVEIARALHTP,-0.111 ± 0.12
15,YWITCCPTCDVDINTWVPFYSTELNKPAMIYCSHGDGHWVHAQCMDLAERTLIHLSCGSNKYYCNEHVEIARALHTP,-0.124 ± 0.11
16,YWITCCPTCDVDINTWVPFYSTELNKPAMIYCSHGDGHWVHAQCMDLAERTLIHLSDGSNKYYCNEHVEIARALHTP,0.04 ± 0.18
17,YWITCCPTCDVDINTWVPFYSTELNKPAMIYCSHGDGHWVHAQCMDLAERTLIHLSWGSNKYYCNEHVEIARALHTP,-0.276 ± 0.11
